Assay results from article PMC7295969.

Target: Orfelia fultoni luciferase (Orfelia fultoni (endogenous in larvae))
Assay: native gel or EMSA; 6% Native-PAGE of the luciferase fraction from anion exchange, no SDS or mercaptoethanol, 25 mM Tris/192 mM glycine, ice-cooled; band shown by bioluminescence with hot extract; the luminescent ~220 kDa band was eluted and re-run on denaturing SDS-PAGE (single ~70 kDa band)

Orfelia fultoni luciferase (enzyme)
stoichiometry N: 3
